# Reference: patent US20030167486
# B1: human BACE (protein)
# chain: ETDEEPEEPGRRGSFVEMVDNLRGKSGQGYYVEMTVGSPPQTLNILVDTGSSNFAVGAAPHPFLHRYYQRQLSSTYRDLRKGVYEPYTQGKWEGELGTDLVSIPHGPNVTVRANIAAITESDKFFINGSNWEGILGLAYAEIARPDDSLEPFFDSLVKQTHVPNLFSLQLCGAGFPLNQSEVLASVGGSMIIGGIDHSLYTGSLWYTPIRREWYYEVIIVRVEINGQDLKMDCKEYNYDKSIVDSGTTNLRLPKKVFEAAVKSIKAASSTEKFPDGFWLGEQLVCWQAGTTPWNIFPVISLYLMGEVTNQSFRITILPQQYLRPVEDVATSQDDCYKFAISQSSTGTVMGAVIMEGFYVVFDRARKRIGFAVSACHVHDEFRTAAVEGPFVTLDMEDCGYNIPQTDESTLMTIAYVMAAICALFMLPLCLMVCQWRCLRCLRQQHDDFADDISLLK
# Biological target: human APP London (V717F), P05067
protein,measurement,value
B1,12 kD beta-secretase fragment of APP on Western blot of brain homogenate,the 12 kD beta-secretase fragment of APP is strongly increased due to expression of transgenic beta-secretase
same,sAPP alpha and sAPP beta fragments in supernatants of organotypic cerebellar slice cultures (ELISA),the over-expression of beta-secretase in APP London single transgenic mice induces a preferential cleavage of APPV717F at the beta cut as demonstrated by the lack of sAPPalpha fragment detection and the increase of sAPPbeta
